Results published in PMC11565477 (FASEB journal : official publication of the Federation of …, 2021).
Values joined by “and” are separate entries in the source; they are usually repeats but may differ in a detail not shown here. Identical values can stand only once.

B1: purified NPTX1-flag-strep (pEB Multi Neo Nptx1-flag-TEV-strep-IRES-GFP, plasmid #4) (natural protein, mouse, UniProt Q62443 23-432, looked up)
chain: QDFGPTRFICTSVPVDADMCAASVAAGGAEELRSNVLQLRETVLQQKETILSQKETIRELTTKLGRCESQSTLDSGPGEARSGGGRKQPGSGKNTMGDLSRTPAAETLSQLGQTLQSLKTRLENLEQYSRLNSSSQTNSLKDLLQSKIDDLERQVLSRVNTLEEGKGGPKNDTEERAKIESALTSLHQRISELEKGQKDNRPGDKFQLTFPLRTNYMYAKVKKSLPEMYAFTVCMWLKSSAAPGVGTPFSYAVPGQANELVLIEWGNNPMEILINDKVAKLPFVINDGKWHHICVTWTTRDGVWEAYQDGTQGGNGENLAPYHPIKPQGVLVLGQEQDTLGGGFDATQAFVGELAHFNIWDRKLTPGEVYNLATCSSKALSGNVIAWAESQIEIFGGATKWTFEACRQIN
B2: purified NPTX1-flag (pEB Multi Neo Nptx1-flag-IRES-GFP, plasmid #3) (natural protein, mouse, UniProt Q62443 23-432, looked up)
chain: B1 chain
B3: purified HA-C1QL3 (pEB Multi Neo HA-C1ql3-IRES-GFP) (natural protein, mouse, UniProt Q9ESN4 21-255, looked up)
chain: HYEMLGTCRMVCDPYGGTKAPSTAATPDRGLMQSLPTFIQGPKGEAGRPGKAGPRGPPGEPGPPGPVGPPGEKGEPGRQGLPGPPGAPGLNAAGAISAATYSTVPKIAFYAGLKRQHEGYEVLKFDDVVTNLGNHYDPTTGKFTCSIPGIYFFTYHVLMRGGDGTSMWADLCKNNQVRASAIAQDADQNYDYASNSVVLHLEPGDEVYIKLDGGKAHGGNNNKYSTFSGFIIYAD

What was measured:
[1] = biological target: the molecule itself; assay: SEC
[2] = biological target: the molecule itself; assay: native gel or EMSA
[3] = biological target: B2; assay: immunostaining of cells or tissue

| binding result [3] | Binder | stoichiometry N [1] | stoichiometry N [2] |
| --- | --- | --- | --- |
| – | B1 | ~15 | – |
| – | B2 | – | 15 |
| binds | B3 | – | 6 and 18 |
